Laboratory results from US20160011195A1.

Experiments:
[1] = biological target: PLK1 PBD protein (residues 367-603) (human), P53350; assay: competitive FP, displacement of fluorescein tracer SEQ ID NO: 7 from PLK1 PBD (367-603)
[2] = biological target: PLK1 (endogenous, in HeLa / HeLa-H2B-GFP cells) (human), P53350; assay: cell-based or functional assay
[3] = biological target: PLK1 PBD protein (residues 367-603) (human), P53350; assay: competitive FP

PLK1 (endogenous, in HeLa / HeLa-H2B-GFP cells) (human), P53350, sequence (P53350 2-603): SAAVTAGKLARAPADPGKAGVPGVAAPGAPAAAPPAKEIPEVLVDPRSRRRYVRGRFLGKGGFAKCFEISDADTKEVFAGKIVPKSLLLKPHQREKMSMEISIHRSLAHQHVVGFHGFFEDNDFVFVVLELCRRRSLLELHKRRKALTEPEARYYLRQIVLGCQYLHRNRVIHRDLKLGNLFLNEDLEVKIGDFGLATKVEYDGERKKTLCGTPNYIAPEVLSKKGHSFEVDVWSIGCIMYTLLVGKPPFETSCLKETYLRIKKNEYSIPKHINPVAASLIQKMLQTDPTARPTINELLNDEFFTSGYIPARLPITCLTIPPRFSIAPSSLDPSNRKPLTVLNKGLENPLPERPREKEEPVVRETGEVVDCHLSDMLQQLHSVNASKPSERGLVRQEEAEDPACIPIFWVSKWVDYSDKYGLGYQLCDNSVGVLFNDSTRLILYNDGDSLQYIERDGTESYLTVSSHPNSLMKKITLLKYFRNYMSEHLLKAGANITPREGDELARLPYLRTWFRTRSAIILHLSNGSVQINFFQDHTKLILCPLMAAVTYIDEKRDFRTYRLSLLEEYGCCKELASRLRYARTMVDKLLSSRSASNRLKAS
PLK1 PBD protein (residues 367-603) (human), P53350, sequence (P53350 367-603 limits assumed): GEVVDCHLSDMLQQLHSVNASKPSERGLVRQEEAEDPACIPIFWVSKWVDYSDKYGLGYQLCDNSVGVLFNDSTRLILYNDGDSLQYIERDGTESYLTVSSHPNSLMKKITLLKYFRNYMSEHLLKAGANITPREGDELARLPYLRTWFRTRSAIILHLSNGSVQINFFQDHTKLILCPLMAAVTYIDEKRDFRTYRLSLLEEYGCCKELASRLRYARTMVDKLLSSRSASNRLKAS

Question: Which IC50 [1] does the source give for STPNGL (modifications not checked) [Sample No. 5600, fragment ligated inhibitor] here?
Answer: Its IC50 is 550 µM.

Question: Which IC50 [1] does the source give for STPNGL (modifications not checked) [Sample No. 5599, fragment ligated inhibitor] here?
Answer: The IC50 was 600 µM.

Question: What does the source list for STPNGL (modifications not checked) [3G2-S[pT]PNGL (4-butylbenzoic acid) (Sample No. 5827)]?
Answer: Aberrant mitoses @ 24 hr [2]: 53.8%; Apoptosis @24 hr [2]: 55.5%; proportion of viable cells after 24 hours, 30 µM (Annexin V/PI) [2]: 45%

Question: STPNGL (modifications not checked) [Sample No. 5826, fragment ligated inhibitor (4-propylbenzoic acid)] was tested. Which IC50 [1] did it give?
Answer: The IC50 was 10.8 µM.

Question: What does the source list for LLCSEPNGL (modifications not checked) [… (sample no. 345)]?
Answer: IC50 [1]: 350 µM; fold less potent (than the phosphothreonine sequence) [3]: 1000 fold

Question: STPNGL (modifications not checked) [Sample No. 5604, fragment ligated inhibitor] was tested. Which IC50 [1] did it give?
Answer: Its IC50 is 300 µM.

Question: STPNGL (modifications not checked) [Sample No. 5791, fragment ligated inhibitor (4-(Methylthio) benzoic acid)] was tested. Which IC50 [1] did it give?
Answer: The IC50 was 18.5 µM.

Question: How did the aberrant prometaphase/metaphase features (30 µM) [2] turn out when LLAAAPNGL (modifications not checked) [… (sample no. 5783)] was run?
Answer: Its aberrant prometaphase/metaphase features (30 µM) is 9.5%.

Question: STPNGL (modifications not checked) [Sample No. 5593, fragment ligated inhibitor] was tested. Which IC50 [1] did it give?
Answer: The IC50 was 380 µM.

Question: LLCSTPNGL (modifications not checked) [LLCS[pT]PNGL, native phospho-CDC25c PBD binding sequence (sample no. 292)] was tested. Which aberrant prometaphase/metaphase features (30 µM) [2] did it give?
Answer: Its aberrant prometaphase/metaphase features (30 µM) is 25%.

Question: And the relative fluorescence intensity of PLK1 staining at centrosomes (HeLa-H2B-GFP) (arbitrary fluorescence units) [2]?
Answer: Its relative fluorescence intensity of PLK1 staining at centrosomes (HeLa-H2B-GFP) (arbitrary fluorescence units) is 45.

Question: With LLCSTPNGL (modifications not checked) [Ac-LLCS[pT]PNGL (sample no. 5821)] as the binder, how does the fraction of viable cells after 24 hours, 30 µM (Annexin V/PI) [2] read?
Answer: Its fraction of viable cells after 24 hours, 30 µM (Annexin V/PI) is 57%.

Question: With STPNGL (modifications not checked) [Sample No. 5792, fragment ligated inhibitor (4-(Methylamino) benzoic acid)] as the binder, how does the IC50 [1] read?
Answer: The IC50 was 31.2 µM.

Question: With STPNGL (modifications not checked) [Sample No. 5595, fragment ligated inhibitor] as the binder, how does the IC50 [1] read?
Answer: The IC50 was 475 µM.

Question: For PLHSEA (modifications not checked) [Ac-PLHSEA (sample no. 5744)], which IC50 [1] is on record?
Answer: The IC50 was 500 µM.

Question: With STPNGL (modifications not checked) [Sample No. 5754, fragment ligated inhibitor (4-methoxybenzoic acid)] as the binder, how does the IC50 [1] read?
Answer: Its IC50 is 125 µM.

Question: Which IC50 [1] does the source give for STPNGL (modifications not checked) [Sample No. 5786, fragment ligated inhibitor (4-ethoxybenzoic acid)] here?
Answer: The IC50 was 64.7 µM.

Question: Which IC50 [1] does the source give for STPNGL (modifications not checked) [Sample No. 5753, fragment ligated inhibitor] here?
Answer: Its IC50 is 104 µM.

Question: For STPNGL (modifications not checked) [3G1-S[pT]PNGL (4-ethylbenzoic acid) (Sample No. 5788)], which Aberrant mitoses @ 24 hr [2] is on record?
Answer: Its Aberrant mitoses @ 24 hr is 47.9%.

Question: And the Apoptosis @24 hr, 30 mM [2]?
Answer: Its Apoptosis @24 hr, 30 mM is 36.2%.

Question: What about the proportion of viable cells after 24 hours, 30 µM (Annexin V/PI) [2] of the same binder?
Answer: The proportion of viable cells after 24 hours, 30 µM (Annexin V/PI) was 64%.

Question: What about the relative fluorescence intensity of PLK1 staining at centrosomes (10 µM, HeLa-H2B-GFP) (arbitrary fluorescence units) [2] of the same binder?
Answer: The relative fluorescence intensity of PLK1 staining at centrosomes (10 µM, HeLa-H2B-GFP) (arbitrary fluorescence units) was 32.

Question: STPNGL (modifications not checked) [Sample No. 5591, fragment ligated inhibitor] was tested. Which IC50 [1] did it give?
Answer: Its IC50 is 375 µM.

Question: How did the IC50 [1] turn out when STPNGL (modifications not checked) [Sample No. 5601, fragment ligated inhibitor] was run?
Answer: Its IC50 is 400 µM.

Question: Which IC50 [1] does the source give for STPNGL (modifications not checked) [Sample No. 5830, fragment ligated inhibitor (4-(Propylamino) benzoic acid)] here?
Answer: Its IC50 is 16.5 µM.

Question: Which results are given for PLHSTA (modifications not checked) [Ac-PLHS[pT]A (sample no. 5743)]?
Answer: Aberrant mitoses @ 24 hr, 30 mM [2]: 40.3%; Apoptosis @24 hr [2]: 34%; cells with mitotic abnormalities (10 µM) [2]: 32%; relative fluorescence intensity of PLK1 staining at centrosomes (30 µM, HeLa-H2B-GFP) (arbitrary fluorescence units) [2]: 33

Question: Which aberrant metaphase (30 µM) [2] does the source give for LHSTAI (modifications not checked) [Ac-LHS[pT]AI (sample no. 5781)] here?
Answer: Its aberrant metaphase (30 µM) is 23%.

Question: What about the decrease of the percentage of viable cells, 24 hours, 30 µM (Annexin V/PI) [2] of the same binder?
Answer: Its decrease of the percentage of viable cells, 24 hours, 30 µM (Annexin V/PI) is 30%.

Question: What about the relative fluorescence intensity of PLK1 staining at centrosomes (30 µM, HeLa-H2B-GFP) (arbitrary fluorescence units) [2] of the same binder?
Answer: The relative fluorescence intensity of PLK1 staining at centrosomes (30 µM, HeLa-H2B-GFP) (arbitrary fluorescence units) was 35.

Question: Which IC50 [1] does the source give for STPNGL (modifications not checked) [Sample No. 5597, fragment ligated inhibitor] here?
Answer: The IC50 was 500 µM.
